How the values were obtained:
Format in all cases: cell-based, Human
[1] = tested on: H1975 cells; test: Clonogenic (colony-formation) assay
Method: (§1) FIGS. 6A-6F illustrate that TWEAK-induced NSCLC cell survival is dependent on Mcl-1 expression. H1975 (FIG. 6A) and H2073 (FIG. 6B) cells were transfected with luciferase (siCont) or siRNAs targeting Mcl-1. Total lysates were collected 72 hours post-transfection and immunoblotted for Mcl-1 and alpha-tubulin. H1975 (FIGS. 6C and 6E) and H2073 (FIGS. 6D and 6F) cells transfected with control or siRNA constructs targeting Mcl-1 were exposed to 1 μM cisplatin for 24 hours (FIGS. 6C and 6D) or 2Gy ionizing radiation (FIGS. 6E and 6F)±pre-incubation with TWEAK (100 ng/mL). Cells were sparsely seeded into 6-well dishes and allowed to grow for 7 days prior to staining with crystal violet and colony counting. A colony was defined as containing at least 50 cells. Bars represent average of three independent wells±standard error with the non-treated (first bar) set to 1. * represents a p value <0.05 by ANOVA with Bonferroni posttest.
H1975 (FIG. 7A) and H2073 (FIG. 7B) cells were transfected with luciferase (siCont) or siRNA targeting Bcl-xL. Total lysates were collected 72 hours post-transfection and immunoblotted for Bcl-xL and alpha-tubulin. H1975 (FIGS. 7C and 7E) and H2073 (FIGS. 7D and 7F) cells transfected with control or siRNA construct targeting Bcl-xL were exposed to 1 μM cisplatin for 24 hours (FIGS. 7C and 7D) or 2Gy ionizing radiation (FIGS. 7E and 7F)±pre-incubation with TWEAK (100 ng/mL). Cells were sparsely seeded into 6-well dishes and allowed to grow for 7 days prior to staining with crystal violet and colony counting. A colony was defined as containing at least 50 cells. Bars represent average of three independent wells±standard error with the non-treated (first bar) set to 1. * represents a p value <0.05 by ANOVA with Bonferroni posttest.
H1975 (FIGS. 11A and 11B) cells were pre-incubated with TWEAK (100 ng/mL), (FIG. 11A) EU-5148 (10 μM), (FIG. 11B) ABT-737 (10 […]) or both drug and TWEAK prior to exposure to 2Gy ionizing radiation. Cells were sparsely seeded (125 cells) into 6-well dishes and allowed to grow for 7 days prior to staining with crystal violet and colony counting. A colony was defined as containing at least 50 cells. Bars represent average of three independent wells±standard error with the non-treated (first bar) set to 1. * represents a p value <0.05 by ANOVA with Bonferroni posttest.
FIGS. 12A-12C illustrate that pharmacologic inhibition of Mcl-1 abrogates TWEAK-mediated cell survival. […]
Observations of colony forming capacity following cytotoxic insult were performed as previously described (Franken N A, Rodermond H M, Stap J, Haveman J, van Bree C. Clonogenic assay of cells in vitro. Nat Protoc. 2006; 1:2315-9). […] Cells were then trypsinized, quantified, and equally dispersed in triplicate in 6-well cell culture dishes at 250 cells per well. […]

[2] = tested on: H2073 cells; test: Clonogenic (colony-formation) assay
Method: as §1, with “Bars represent average of three independent wells±standard error with the non-treated (first bar) set to 1. * represents a p value <0.05 by ANOVA with Bonferroni posttest.” left out
Observations of colony forming capacity following cytotoxic insult were performed as previously described (Franken N A, Rodermond H M, Stap J, Haveman J, van Bree C. Clonogenic assay of cells in vitro. Nat Protoc. 2006; 1:2315-9). […] Cells were then trypsinized, quantified, and equally dispersed in triplicate in 6-well cell culture dishes at 250 cells per well. […] Apparent colonies were counted. […] Statistical significance, defined as a p value <0.05, was determined by ANOVA analysis with Bonferroni posttests in Graphpad Prism.

[3] = tested on: cleaved-PARP in H1975 cells; test: Cleaved-PARP immunoblot (apoptosis)
Method: FIGS. 8A and 8B illustrate that depletion of Mcl-1 abrogates TWEAK-induced protection from cell death induced by DNA damage. H1975 cells were transfected with either siRNA targeting luciferase (control) or Mcl-1. Cells were exposed to 5 uM cisplatin (FIG. 8A) or 8Gy radiation (FIG. 8B) for 0, 4 or 24 hours±pre-incubation with TWEAK (100 ng/mL). Total cell lysates were prepared and immunoblotted for cleaved-PARP (cPARP) and GAPDH as a loading control. All blots were run in duplicate.
Mcl-1, Bcl-2, Bcl-xL, phospho-p65 (Serine residue 536), Bak, GAPDH, and cleaved-PARP antibodies were obtained from Cell Signaling Technology Inc. (Beverly, Mass.), and α-tubulin antibody was obtained from Millipore (San Diego, Calif.). Human recombinant TWEAK was purchased from PeproTech (Rock Hill, N.J.), and cisplatin was obtained from TZS Chemical via BIOTANG Inc. (Waltham, Mass.). The Mcl-1-specific inhibitor EU-5148 was kindly provided by Eutropics Pharmaceuticals (Cambridge, Mass.). ABT-737 was obtained from Selleck Chemicals (Houston, Tex.). […]

[4] = tested on: phosphorylated p65, Mcl-1, Bcl-xL, Bcl-2 in H1975 cells; test: Immunoblot after TWEAK treatment
Method: (§2) FIGS. 4A-4C illustrate that TWEAK induces Mcl-1 in NSCLC cell lines in an NF-κB-dependent manner. Total cell lysates were prepared from serum-reduced (FIG. 4A) H1975 and (FIG. 4B) H2073 cell lines treated with TWEAK for the indicated times and immunoblotted with the indicated antibodies: Mcl-1, Bcl-xL, and phosphorylated-p65 (Ser536). Tubulin was used as a loading control. (FIG. 4C) Serum-reduced H2073 cells transfected±IkBα mutant were treated with TWEAK for 24 hours. Cells were harvested, total cell lysates were prepared and immunoblotted with the indicated antibodies to both Mcl-1 and phospho-p65. All blots were run in duplicate and tubulin was used as a loading control.
(§3) Human lung adenocarcinoma cell lines H1975 and H2073 (ATCC, Manassas, Va.) were maintained in RPMI 1640 media (Invitrogen, Carlsbad, Calif.) plus 10% heat-inactivated fetal bovine serum (FBS) in a 37° C., 5% CO2 atmosphere. SU-DHL10 (Deng J, Carlson N, Takeyama K, Dal Cin P, Shipp M, Letai A. BH3 profiling identifies three distinct classes of apoptotic blocks to predict response to ABT-737 and conventional chemotherapeutic agents. Cancer Cell. 2007; 12:171-85), Bcl-2 1863 and Mcl-1 1780 cell lines (Ryan J A, Brunelle J K, Letai A. Heightened mitochondrial priming is the basis for apoptotic hypersensitivity of CD4+CD8+ thymocytes. Proc Natl Acad Sci USA. 2010; 107:12895-900) were maintained in RPMI 1640 plus 10% FBS with 50 μM β-mercaptoethanol added to 1863 and 1780 cells. In all assays treated with TWEAK, cells were cultured in reduced serum (0.5% FBS) for 16 hours prior to stimulation with TWEAK at 100 ng/mL in RPMI+0.1% bovine serum albumin (BSA) for the indicated times.
(§4) Mcl-1, Bcl-2, Bcl-xL, phospho-p65 (Serine residue 536), Bak, GAPDH, and cleaved-PARP antibodies were obtained from Cell Signaling Technology Inc. (Beverly, Mass.), and α-tubulin antibody was obtained from Millipore (San Diego, Calif.). Human recombinant TWEAK was purchased from PeproTech (Rock Hill, N.J.), and cisplatin was obtained from TZS Chemical via BIOTANG Inc. (Waltham, Mass.). The Mcl-1-specific inhibitor EU-5148 was kindly provided by Eutropics Pharmaceuticals (Cambridge, Mass.). ABT-737 was obtained from Selleck Chemicals (Houston, Tex.). Immunoblot analysis was performed as previously described (Whitsett T G, Cheng E, Inge L, Asrani K, Jameson N M, Hostetter G, et al. Elevated expression of Fn14 in non-small cell lung cancer correlates with activated EGFR and promotes tumor cell migration and invasion. Am J Pathol. 2012; 181:111-20; Tran N L, McDonough W S, Savitch B A, Sawyer T F, Winkles J A, Berens M E. The tumor necrosis factor-like weak inducer of apoptosis (TWEAK)-fibroblast growth factor-inducible 14 (Fn14) signaling system regulates glioma cell survival via NFkB pathway activation and BCL-XL/BCL-W expression. J Biol Chem. 2005; 280:3483-92).

[5] = tested on: phosphorylated p65, Mcl-1, Bcl-xL in H2073 cells; test: Immunoblot after TWEAK treatment; conditions: H2073, TWEAK 100 ng/mL
Method: as §2, §3, §4

[6] = tested on: Mcl-1 and Bcl-xL mRNA in H1975 cells; test: qPCR of Mcl-1 and Bcl-xL mRNA after TWEAK; conditions: H1975, TWEAK 100 ng/mL, maximal at about 6 hours
Method: (§5) FIGS. 5A and 5B illustrate that TWEAK exposure enhances Mcl-1 and Bcl-xL mRNA expression. Total RNA was collected from (FIG. 5A) H1975 and (FIG. 5B) H2073 cells treated with 100 ng/mL TWEAK for the indicated time points. mRNA expression of Mcl-1 and Bcl-xL were determined by qPCR with histone H3.3 mRNA levels used as endogenous control. Bars represent the average±standard error of triplicate qPCR reactions. * represents a p value <0.05 compared to no treatment (of the respective gene) by Student's t test. All assays were run in duplicate.
(§6) Human lung adenocarcinoma cell lines H1975 and H2073 (ATCC, Manassas, Va.) were maintained in RPMI 1640 media (Invitrogen, Carlsbad, Calif.) plus 10% heat-inactivated fetal bovine serum (FBS) in a 37° C., 5% CO2 atmosphere. […]
(§7) mRNA expression was determined by qPCR as previously described (Fortin Ensign S P, Mathews I T, Eschbacher J M, Loftus J C, Symons M H, Tran N L. The Src homology 3 domain-containing guanine nucleotide exchange factor is overexpressed in high-grade gliomas and promotes tumor necrosis factor-like weak inducer of apoptosis-fibroblast growth factor-inducible 14-induced cell migration and invasion via tumor necrosis factor receptor-associated factor 2. J Biol Chem. 2013; 288:21887-97). […]

[7] = tested on: Mcl-1 and Bcl-xL mRNA in H2073 cells; test: qPCR of Mcl-1 and Bcl-xL mRNA after TWEAK; conditions: H2073, TWEAK 100 ng/mL, maximal at about 6 hours
Method: as §5, §6, §7

CN(C)CC[C@H](CSc1ccccc1)Nc1ccc(S(=O)(=O)NC(=O)c2ccc(N3CCN(Cc4ccccc4-c4ccc(Cl)cc4)CC3)cc2)cc1[N+](=O)[O-] [ABT-737]
effect on TWEAK-induced cell survival ([1]; H1975, drug 10 μM plus TWEAK 100 ng/mL, 2Gy ionizing radiation): lesser effect on TWEAK-induced cell survival
sensitivity to radiation (cell survival, colony count) ([1]; H1975, drug 10 μM pre-incubation, 2Gy ionizing radiation): did sensitize H1975 cells to radiation

N.N.[Cl][Pt][Cl] [cisplatin, reference compound]
cell survival (colony formation) ([1]; H1975, 1 μM cisplatin): significantly reduced NSCLC cell survival
cell survival (colony formation) ([2]; H2073, 1 μM cisplatin): significantly reduced NSCLC cell survival
protein expression of cleaved-PARP ([3]; H1975, 5 uM cisplatin, 0, 4 or 24 hours): induces protein expression of cleaved-PARP over time

B1: TWEAK: Human recombinant tumor necrosis factor-like weak inducer of apoptosis, purchased from PeproTech (protein, UniProt O43508 94-249, looked up)
Tumor necrosis factor ligand …: SAPKGRKTRARRAIAAHYEVHPRPGQDGAQAGVDGTVSGWEEARINSSSPLRYNRQIGEFIVTRAGLYYLYCQVHFDEGKAVYLKLDLLVDGVLALRCLEEFSATAASSLGPQLRLCQVSGLLALRPGSSLRIRTLPWAHLKAAPFLTYFGLFQVH
cell survival after cisplatin or radiation with TWEAK pre-treatment ([1]; H1975, TWEAK 100 ng/mL, 1 μM cisplatin or 2Gy): significantly attenuated the effects of either cisplatin or radiation
cell survival after cisplatin or radiation with TWEAK pre-treatment ([2]; H2073, TWEAK 100 ng/mL, 1 μM cisplatin or 2Gy): significantly attenuated the effects of either cisplatin or radiation
phosphorylated p65 (P-p65) ([4]; H1975, TWEAK 100 ng/mL): clear induction
protein expression of Mcl-1 and Bcl-xL over time ([4]; H1975, TWEAK 100 ng/mL): incremental increases
protein expression of Bcl-2 ([4]; H1975, TWEAK exposure): up-regulated
phosphorylated p65 (P-p65) [5]: clear induction
protein expression of Mcl-1 and Bcl-xL over time [5]: incremental increases
maximal increase of Mcl-1 and Bcl-xL mRNA levels [6]: 10 fold
maximal increase of Mcl-1 and Bcl-xL mRNA levels [7]: 50 fold
induction of cleaved-PARP with TWEAK pretreatment ([3]; H1975, TWEAK 100 ng/mL, 5 uM cisplatin or 8Gy radiation, 4 or 24 hours): completely abrogates the induction of cleaved-PARP

Reference: patent publication US20160130654A1, “SYSTEMS AND METHODS FOR DIAGNOSING AND TREATING CANCER” (THE TRANSLATIONAL GENOMICS RESEARCH INSTITUTE, priority 2013, published 2016)
